The text below walks through data of the RNAGym collection of RNA variant scans (doi:10.7554/elife.80360).

B1: Twister Ribozyme (parent)
chain: AACACUGCCAAUGCCGGUCCCAAGCCCGGAUAAAAGUGGAGGGGGCGG

In the data set the parent is B1. The data set is described as follows: self-cleavage, relative activity (ratio to wild type); higher = more cleavage; co-transcriptional.
Regarding C5G U6A, the self-cleavage turned out to be 0.404.

In the case of G39A G44A, the self-cleavage was found to be 0.339.

With C9A G45C, the self-cleavage worked out at 0.131.

Consider G36U G41C, for which the self-cleavage was 0.114.

A34G G39C: the self-cleavage is 0.109.

As to G36U, the self-cleavage came out at 0.479.

Consider G36C G39A, for which the self-cleavage was 0.122.

In the case of G38C G44U, the self-cleavage was 1.02.

As to G38C G44A, the self-cleavage came to 0.826.

Turning to G13U A32C, the self-cleavage was determined as 0.595.

On to A1C C15U, for which the self-cleavage turned out to be 0.153.

With A1C G16A, the self-cleavage was 0.209.

Take A11C G24A: the self-cleavage was determined as 0.0913.

With C3U G13A, the self-cleavage worked out at 0.402.

Consider A32C G48A, for which the self-cleavage came to 0.929.

Consider U31C G36A, for which the self-cleavage turned out to be 0.725.

For C5U C15G, the self-cleavage is 0.0698.

As to A32U G47U, the self-cleavage came to 0.83.

As to G17C G42U, the self-cleavage is 0.0737.

As for A4C C46U, the self-cleavage came to 0.163.

As to G17U C20A, the self-cleavage came to 0.0851.

For the variant A11C C20G, the self-cleavage was determined as 0.131.

Take A1U A33G: the self-cleavage turned out to be 0.0708.

As for C5U C8A, the self-cleavage was determined as 0.193.

For the variant C5U C8G, the self-cleavage was found to be 0.132.

Take A22C G28C: the self-cleavage is 0.955.

For the variant U12G G29A, the self-cleavage worked out at 0.622.

As to A22U C26A, the self-cleavage was 0.11.

With U12G C21U, the self-cleavage came out at 0.0878.

As for C5G G43U, the self-cleavage is 0.136.

As for C5G G43A, the self-cleavage turned out to be 0.153.

Consider C8G U37G, for which the self-cleavage came to 0.108.

For the variant A32C A40U, the self-cleavage was found to be 0.123.

Turning to C3U G48U, the self-cleavage came to 0.562.

For the variant A2C G29U, the self-cleavage turned out to be 0.0781.

On to C9G C46G, for which the self-cleavage came to 0.576.

A23C C26U: the self-cleavage was 0.0813.

For A22C G43U, the self-cleavage is 0.273.

On to A11C A30C, for which the self-cleavage worked out at 0.719.

With A11C A30G, the self-cleavage was found to be 0.739.

For C5A A32G, the self-cleavage was found to be 0.542.

Consider A4C C15G, for which the self-cleavage was 0.0431.

As to A33C G41U, the self-cleavage worked out at 0.265.

As to A10G U18G, the self-cleavage was 0.0537.

Regarding U31C A32C, the self-cleavage turned out to be 0.965.

Consider G29C G36A, for which the self-cleavage stood at 0.188.

As for U12A G44C, the self-cleavage came out at 1.19.

In the case of C25G G39C, the self-cleavage stood at 0.109.

As to A32U G48U, the self-cleavage was determined as 0.977.

Turning to G17U C21U, the self-cleavage worked out at 0.0901.

With U18G G45U, the self-cleavage came out at 0.0852.

On to C27U G39C, for which the self-cleavage was found to be 0.136.

Regarding A10G C14U, the self-cleavage was found to be 1.02.

For the variant G7C A40C, the self-cleavage came out at 0.0472.

As for C3G G44U, the self-cleavage stood at 0.425.

Turning to U31C A40U, the self-cleavage worked out at 0.149.

As for A1C G43C, the self-cleavage turned out to be 0.141.

Regarding A2G A4C, the self-cleavage amounted to 0.0432.

As to A2G G45A, the self-cleavage stood at 0.338.

With C3A U37A, the self-cleavage came to 0.201.

For the variant C27G G38C, the self-cleavage is 0.0767.

Turning to G7A G29U, the self-cleavage was determined as 0.339.

Regarding C5G A34G, the self-cleavage was 0.384.

For C8A, the self-cleavage is 0.61.

In the case of G38C G42A, the self-cleavage worked out at 0.229.

As to U18A C19G, the self-cleavage worked out at 0.0926.

As for U18A C19U, the self-cleavage was determined as 0.266.

As to C25U U31A, the self-cleavage was 0.666.

As to G24C C26G, the self-cleavage is 0.0413.

For the variant U37A A40C, the self-cleavage stood at 0.127.

Consider C9A G43A, for which the self-cleavage amounted to 0.153.

Consider A4U C15A, for which the self-cleavage was found to be 0.0639.

On to A32U G44C, for which the self-cleavage amounted to 0.934.

Take C27U C46U: the self-cleavage turned out to be 0.822.

With C26A A35G, the self-cleavage was determined as 0.219.

On to U6C U18G, for which the self-cleavage was determined as 0.0358.

For U12C A35C, the self-cleavage amounted to 1.08.

As to C5G U12A, the self-cleavage is 0.821.

Turning to C5U C21U, the self-cleavage was determined as 0.0809.

Regarding C5G C8A, the self-cleavage is 0.15.

Turning to C3U G7C, the self-cleavage came to 0.0424.

Regarding U12G C14U, the self-cleavage is 0.756.

Regarding C5G G16U, the self-cleavage stood at 0.0938.

In the case of U6G G42C, the self-cleavage was determined as 0.156.

For the variant C9A A34U, the self-cleavage was 0.535.

With C8G U31C, the self-cleavage worked out at 0.497.

As for C15A U37C, the self-cleavage came to 0.168.

Turning to A22G C25U, the self-cleavage stood at 0.131.

For C3G C20U, the self-cleavage turned out to be 0.295.

As for G29U G38A, the self-cleavage came out at 0.775.

Regarding U18G C20U, the self-cleavage was found to be 0.102.

Regarding A33U G36U, the self-cleavage was determined as 0.132.

For G38A C46U, the self-cleavage was 0.877.

Take G17A G42A: the self-cleavage amounted to 0.107.

As for G16C C25A, the self-cleavage came to 0.0993.

In the case of G39C C46G, the self-cleavage was 0.126.

For the variant A2C C26A, the self-cleavage was 0.0536.

In the case of U18C C25U, the self-cleavage is 0.16.

Consider G24A G44C, for which the self-cleavage is 0.0736.

As to G16A A32C, the self-cleavage was found to be 0.97.

As for A11G U18G, the self-cleavage was 0.0264.

For the variant U18G A33C, the self-cleavage was 0.0995.

With A34U G39U, the self-cleavage came out at 0.139.

As to A2G G42U, the self-cleavage is 0.11.

On to C3U G17U, for which the self-cleavage is 0.0762.

As for C20A U31A, the self-cleavage came to 0.14.

Regarding G7A C20U, the self-cleavage worked out at 0.116.

C25U G28U: the self-cleavage came to 0.724.

Regarding A10G A11G, the self-cleavage is 0.886.

For the variant A4U G48U, the self-cleavage came to 0.147.

As to C25G G44U, the self-cleavage came out at 0.197.

In the case of G17A G39C, the self-cleavage came out at 0.105.

As for C19G G45U, the self-cleavage is 0.174.

As for C19G A32U, the self-cleavage turned out to be 0.287.

As for U37C G41C, the self-cleavage worked out at 0.087.

For the variant A10C G47C, the self-cleavage came out at 0.538.

Consider C9G C25G, for which the self-cleavage was 0.0708.

G13C A35G: the self-cleavage came to 0.139.

Regarding G13C A35C, the self-cleavage turned out to be 0.403.

As for G24U C26G, the self-cleavage was 0.0895.

Take C5U G42A: the self-cleavage stood at 0.184.

Regarding C9A G36C, the self-cleavage is 0.107.

Consider G24C A33C, for which the self-cleavage is 0.146.

As to C21U C27G, the self-cleavage worked out at 0.0722.

As to A30C G38U, the self-cleavage stood at 0.715.

Consider A1G G17C, for which the self-cleavage was determined as 0.128.

On to A34C G47A, for which the self-cleavage came out at 0.122.

U12C G47C: the self-cleavage stood at 0.497.

In the case of A32G G36C, the self-cleavage was 0.403.

In the case of G13C G48C, the self-cleavage worked out at 0.249.

With A2G A40U, the self-cleavage was 0.107.

Take A32C U37G: the self-cleavage came out at 0.625.

On to G43U C46A, for which the self-cleavage was found to be 0.271.

Turning to C25A G38A, the self-cleavage was found to be 0.0977.

Regarding A11C A40G, the self-cleavage came out at 0.12.

With C9A A32C, the self-cleavage was found to be 0.665.

Consider G24U G48U, for which the self-cleavage came to 0.0921.

In the case of G24U G48A, the self-cleavage was 0.0944.

In the case of C3A G17A, the self-cleavage was determined as 0.0964.

For A32G G39C, the self-cleavage was 0.155.

For the variant C9G C27G, the self-cleavage amounted to 0.0899.

As for A30G G47C, the self-cleavage amounted to 0.534.

For A34G C46A, the self-cleavage was 0.736.

Consider A34G C46U, for which the self-cleavage turned out to be 0.834.

With C9A C46A, the self-cleavage turned out to be 0.426.

For the variant C26A G41A, the self-cleavage amounted to 0.101.

Take G28A G43A: the self-cleavage was found to be 0.191.

As to G28A G43C, the self-cleavage is 0.163.

On to A1U G36C, for which the self-cleavage is 0.0449.

On to G7U A10C, for which the self-cleavage amounted to 0.117.

In the case of C25A A34G, the self-cleavage is 0.1.

Regarding C25A A33C, the self-cleavage came out at 0.0788.

In the case of A30C U37C, the self-cleavage was 0.154.

For the variant C9U G48C, the self-cleavage worked out at 0.795.

Regarding C8A G28C, the self-cleavage came to 0.159.

As to A1U C19A, the self-cleavage is 0.0579.

Turning to U31G G42U, the self-cleavage worked out at 0.447.

Turning to G36A G48A, the self-cleavage was determined as 0.639.

As to C21G G38A, the self-cleavage stood at 0.11.

For the variant C9G U12C, the self-cleavage was determined as 0.812.

For C3G A34C, the self-cleavage is 0.0918.

Consider A4U G7A, for which the self-cleavage worked out at 0.1.

Take A11U U12G: the self-cleavage was found to be 1.05.

In the case of A10G G29C, the self-cleavage amounted to 1.01.

Consider C27G G29C, for which the self-cleavage amounted to 0.0656.

U18G G42U: the self-cleavage turned out to be 0.0585.

A35U G41A: the self-cleavage turned out to be 0.678.
